The nature of data set [1]: hPEPD-degrading activity of mouse plasma samples. It is filed as in vitro ADME. The method, then:
Measurement of in vitro degradation of hPEPD, mSRC and hAβ1-42. To determine whether a blood coagulation factor degrades hPEPD, hPEPD at 90 nM or lower concentrations (10 or 40 nM) was incubated with solvent, 100 nM FIIa, 100 nM FXa, 10 nM FVIIa with or without 10 nM TF, or 10 nM FVII with or without 10 nM TF and/or 100 nM FIIa in PBS in a total volume of 100 μl containing 5 mM CaCl2 for desired times at RT. […] To compare the hPEPD-degrading activities of different plasma samples, 9.2 pmol of hPEPD was incubated with 100 μl of plasma from WT mice or FVII^tTA/tTA mice at RT, with or without FIIa or FXa (10 pmol), and to maximize detection of any activity, all incubations lasted for 24 h. […] Although some clotting activity may take place before and during centrifugation of the blood sample, our experiments indicate that activation of coagulation factors, e.g., FVII, is very limited (see FIG. 5A). To measure remaining hPEPD, the incubated samples were cleared of potential fibrin clots by centrifugation and then analyzed by SDS-PAGE and silver staining (using the LC 6070 kit from Invitrogen), IB or measurement of hPEPD enzymatic activity. hPEPD enzymatic activity was measured using glycyl-proline as a substrate (as described in Zbucka et al., Folia Histochem Cytobiol 2007; 45 Suppl 1: S181-185). The precipitates from each incubated sample were washed with PBS twice and then resuspended in 2.5% SDS (20 μper sample); each solution was mixed with 10 μl loading dye and analyzed for hPEPD by IB, using pure hPEPD as a standard and factor FXIIIa as a binding control, respectively.
To measure degradation of hPEPD in plasma samples with or without removal of FVII and FVIIa, plasma samples from WT mice as described above were either used directly or immunodepleted of FVII and FVIIa before use. To remove FVII and FVIIa from plasma, 500 μl plasma was incubated with an antibody specific for FVII/FVIIa (GTX79785; 10 μg) and protein A sepharose beads for 1 h at RT. Following centrifugation at 13,000×g for 1 min at 4° C., the supernatant fraction was collected and analyzed by IB to confirm depletion of FVII and FVIIa. Next, 9.2 pmol of hPEPD was incubated with 100 μl of regular plasma or the plasma depleted of FVII/FVIIa, with or without FIIa (10 pmol) for 24 h at RT. Potential fibrin clots formed during the incubation was removed by centrifugation at the end of the incubation, and remaining hPEPD was measured by hPEPD enzymatic activity analysis.

Data set [2] concerns plasma mSRC. Kind of data set: Plasma SRC concentration in mice by ELISA. It is filed as in vivo, mouse. To be noted: FXII−/− mice, CCl4 0.5 g/kg or hPEPD 4 mg/kg i.p., 24 h. The method, then: Animal studies. All animal studies were performed in accordance with protocols approved by the Institutional Animal Care and Use Committee at Roswell Park Cancer Institute. Male mice at 7-8 weeks of age were used, including wild type (WT) mice (C57BL/6), and mice deficient in FXII (C57BL/6-FXII^−/−) or FVII (C57BL/6-FVII^tTA/tTA). WT C57BL/6 mice were purchased from Taconic. C57BL/6-FXII^−/− mice and C57BL/6-FVII^tTA/tTA mice were bred in our own facility and genotyped. The breeders were kindly provided by Dr. Francis J. Castellino at University of Notre Dame. […] CCl4 was dissolved in corn oil, whereas all other substances were dissolved in PBS. The vehicle or the test substance was given to mice in 0.1 ml volume per 20 g body weight. Blood was collected from the mice at specific times by cardiac puncture at the time of sacrifice by carbon dioxide, and heart, liver and kidney were also collected from some of the mice. […]
Measurement of plasma levels of PEPD, SRC, Aβ1-42 and FI. […] Upon adequate color development, 100 μl of stop solution (Cell Signaling, 7002) was added to each well, and absorbance at 450 nm was promptly recorded by a microtiter plate reader. Plasma FI concentration was determined using an assay kit (400-374-130050) from GenWay Biotech, following the manufacturer's instruction.
A general note: ELISA stands for enzyme-linked immunosorbent assay.

Data set [3] relates to plasma coagulation factors FXII, PK, HMWK, FXI, FIX, FX, FII, FI and FVII. Kind of data set: Changes in plasma coagulation factors in mice by IB (FI by ELISA). It is filed as in vivo, mouse. The conditions noted are these: 6 h after i.p. treatment.
Procedure: Animal studies. […] Male mice at 7-8 weeks of age were used, including wild type (WT) mice (C57BL/6), and mice deficient in FXII (C57BL/6-FXII^−/−) or FVII (C57BL/6-FVII^tTA/tTA). WT C57BL/6 mice were purchased from Taconic. C57BL/6-FXII^−/− mice and C57BL/6-FVII^tTA/tTA mice were bred in our own facility and genotyped. […] CCl4 was dissolved in corn oil, whereas all other substances were dissolved in PBS. The vehicle or the test substance was given to mice in 0.1 ml volume per 20 g body weight. Blood was collected from the mice at specific times by cardiac puncture at the time of sacrifice by carbon dioxide, and heart, liver and kidney were also collected from some of the mice. Blood was collected into K3 EDTA-containing tubes (Multivette 600 from Sarstedt), unless specified otherwise. All blood samples were promptly centrifuged to obtain plasma samples.
The plates were washed three times with phosphate buffered saline tween-20 (PBST) and the coated wells were blocked by incubation with 200 μl/well of 1% BSA in PBS for at least 2 h at RT. […] The plates were washed again with PBST, and each well was incubated with a goat anti-rabbit IgG-HRP conjugate (100 μl) for 1 h at RT. After yet another round of wash with PBST, each well was incubated with 100 μl of HRP substrate 3,3′,5,5′-tetramethylbenzedine (Cell Signaling, 7004). Upon adequate color development, 100 μl of stop solution (Cell Signaling, 7002) was added to each well, and absorbance at 450 nm was promptly recorded by a microtiter plate reader. Plasma FI concentration was determined using an assay kit (400-374-130050) from GenWay Biotech, following the manufacturer's instruction.
IB. Tissue samples were mixed with RIPA buffer (25 mM Tris-HCl, pH 7.6, 150 mM NaCl, 1% Nonidet P-40, 1% sodium deoxycholate, 0.1% SDS), supplemented with 2 mM phenylmethanesulfonyl fluoride, a proteinase inhibitor mix (Roche Applied Science) and phosphatase inhibitor Cocktail 2 (Sigma-Aldrich). Tissue samples were stroked in a Dounce homogenizer, and the homogenates were cleared by centrifugation at 12,000×g for 15 min at 4° C. Protein concentrations in all samples were measured by the BCA assay kit. Plasma samples were used without further processing (20 μl per sample). Each sample was mixed with 4× loading dye, heated for 5 min at 95° C. and then resolved by SDS-PAGE (8-12.5%). […] The proteins were transferred to polyvinylidene fluoride membrane, probed with specific antibodies and detected using the ECL Plus Kit (Amersham) or the SuperSignal West Pico Kit (Thermo Scientific).
The subject of data set [4] is FXII. Nature of the data set: Binding to coagulation factor FXII (IP and IB). Also on record: species or system human. To be noted: 40 nM (hAβ1-42 200 nM) with FXII in PBS, 2 h.
Procedure: Binding reactions were carried out in PBS in a total volume of 100 μl for 2 h at 37° C. To assess binding of hPEPD to HMWK, PK, FXI, FXII or a FXII mutant, hPEPD at 40 nM was incubated with a potential binding partner at 0.5 μM. All FXII mutants are His tagged, while FXII is either 6XHis-tagged (generated in our own laboratory) or not His-tagged (purchased commercially), depending on the experiment. To compare hPEPD and its mutants for binding to FXII, hPEPD or a mutant (40 nM) was incubated with FXII at 0.5 μM. Likewise, to assess binding of mSRC to FXII and its mutants, mSRC (40 nM) was incubated with FXII or a mutant at 0.5 μM. At the end of the incubation, 300 μl PBS containing a specific primary antibody was added to the incubation solution, which was further incubated at 4° C. overnight, followed by IP by protein G-agarose, and the precipitates were analyzed by IB. […] The precipitates were re-dissolved in 30 μl of 2% SDS, which were analyzed along with the supernatants by IB.
The subject of data set [5] is plasma Aβ1-42. Nature of the data set: Plasma Aβ1-42 concentration in mice by ELISA. In kind it is in vivo, mouse. The conditions noted are these: FXII−/− mice, CCl4 0.5 g/kg or hPEPD 4 mg/kg i.p., 24 h.
Procedure: Animal studies. All animal studies were performed in accordance with protocols approved by the Institutional Animal Care and Use Committee at Roswell Park Cancer Institute. Male mice at 7-8 weeks of age were used, including wild type (WT) mice (C57BL/6), and mice deficient in FXII (C57BL/6-FXII^−/−) or FVII (C57BL/6-FVII^tTA/tTA). WT C57BL/6 mice were purchased from Taconic. C57BL/6-FXII^−/− mice and C57BL/6-FVII^tTA/tTA mice were bred in our own facility and genotyped. […] CCl4 was dissolved in corn oil, whereas all other substances were dissolved in PBS. The vehicle or the test substance was given to mice in 0.1 ml volume per 20 g body weight. Blood was collected from the mice at specific times by cardiac puncture at the time of sacrifice by carbon dioxide, and heart, liver and kidney were also collected from some of the mice. Blood was collected into K3 EDTA-containing tubes (Multivette 600 from Sarstedt), unless specified otherwise. All blood samples were promptly centrifuged to obtain plasma samples.
Measurement of plasma levels of PEPD, SRC, Aβ1-42 and FI. […] The plates were washed three times with phosphate buffered saline tween-20 (PBST) and the coated wells were blocked by incubation with 200 μl/well of 1% BSA in PBS for at least 2 h at RT. After another round of wash with PBST, the plates were incubated with appropriately diluted Aβ1-42 standard, SRC standard or plasma samples (100 μl/well) for 2 h at RT. The plates were then washed with PBST and incubated with an anti-Aβ1-42 rabbit polyclonal antibody (sc-9129) or anti-SRC rabbit monoclonal antibody (2123) at 100 μl/well for 2 h at RT. The plates were washed again with PBST, and each well was incubated with a goat anti-rabbit IgG-HRP conjugate (100 μl) for 1 h at RT. After yet another round of wash with PBST, each well was incubated with 100 μl of HRP substrate 3,3′,5,5′-tetramethylbenzedine (Cell Signaling, 7004). Upon adequate color development, 100 μl of stop solution (Cell Signaling, 7002) was added to each well, and absorbance at 450 nm was promptly recorded by a microtiter plate reader.
Data set [6] deals with FXII. Nature of the data set: FXII activation, chromogenic assay. In kind it is biochemical, human. The method, then:
Measurement of FXII activation. […] FXII activation was followed for 3 h at RT by monitoring the conversion of the chromogenic substrate at 405 nm by a microtiter plate reader.
Each value is mean±SD (n=3).

B1: hPEPD: recombinant human prolidase (PEPD), 6xHis tagged to the carboxy terminus (protein, UniProt P12955 2-493, looked up)
Xaa-Pro dipeptidase: AAATGPSFWLGNETLKVPLALFALNRQRLCERLRKNPAVQAGSIVVLQGGEETQRYCTDTGVLFRQESFFHWAFGVTEPGCYGVIDVDTGKSTLFVPRLPASHATWMGKIHSKEHFKEKYAVDDVQYVDEIASVLTSQKPSVLLTLRGVNTDSGSVCREASFDGISKFEVNNTILHPEIVECRVFKTDMELEVLRYTNKISSEAHREVMKAVKVGMKEYELESLFEHYCYSRGGMRHSSYTCICGSGENSAVLHYGHAGAPNDRTIQNGDMCLFDMGGEYYCFASDITCSFPANGKFTADQKAVYEAVLRSSRAVMGAMKPGVWWPDMHRLADRIHLEELAHMGILSGSVDAMVQAHLGAVFMPHGLGHFLGIDVHDVGGYPEGVERIDEPGLRSLRTARHLQPGMVLTVEPGIYFIDHLLDEALADPARASFLNREVLQRFRGFGGVRIEEDVVVTDSGIELLTCVPRTVEEIEACMAGCDKAFTPFSGPK
modifications: C-terminal 6xHis tag
notes: recombinant human prolidase (PEPD), 6xHis tagged to the carboxy terminus
As to B1, the entries for the “hPEPD degradation in plasma after adding human FIIa or FXa” value in data set [1] (FVII tTA/tTA plasma) and in data set [1] (WT plasma) were “neither factor was effective” and “markedly enhanced hPEPD degradation”, respectively. The “hPEPD degradation after incubation with plasma” value in data set [1] (FVII tTA/tTA plasma, 24 h, RT) was “no degradation of hPEPD could be detected”. Besides, the “hPEPD remained after incubation with plasma” value in data set [1] (WT plasma, 24 h, RT) amounted to 88.8%. Besides, the “hPEPD degradation in plasma after removal of FVII/FVIIa by immunodepletion” value in data set [1] (WT plasma, with or without FIIa) is listed as “abolished the residual hPEPD degradation or FIIa-enabled hPEPD degradation”. The “average plasma level of mSRC, increase” value in data set [2] was “remained unchanged”. The “activation/cleavage of plasma coagulation factors” value in data set [3] (FXII−/− mice) was “no activation of HMWK, FXI, PK and FIX, but slight activation of FX, FII and FVII”; in data set [3] (WT mice), “caused cleavage or activation of many coagulation factors”. Further, in data set [4], the “binding to FXII” value is “binds only to FXII”. Moreover, the “average plasma level of mAβ1-42, increase” value in data set [5] is given as “remained unchanged”. Further, in data set [6] (FXII 0.97 nM, ZnCl2-containing PBS, RT), the FXII activation entry is on record as “did not differ in activating FXII”. For the same molecule, in data set [6] (with or without ZnCl2 15 μM, IB), the “Zn2+ requirement of FXII activation” value is recorded as “required Zn^2+”.

Source of the values: US20180188270A1, “DIAGNOSTIC TEST FOR ALZHEIMER'S DISEASE BASED ON IDENTIFICATION OF A PROTEOLYTIC PATHWAY” (Health Research, Inc., priority 2015, published 2018).
